Where two headings read alike, the source gives them in different places.
How the values were obtained:
[1] = biological target: T1, TGFβ2 (transforming growth factor beta 2) (Homo sapiens, UniProt P61812 SEQ:1-112); assay: filter; 37C; Ki 30 nM in cell assay; settings: chain copies: 2 (inferred, homodimer)
T1 sequence: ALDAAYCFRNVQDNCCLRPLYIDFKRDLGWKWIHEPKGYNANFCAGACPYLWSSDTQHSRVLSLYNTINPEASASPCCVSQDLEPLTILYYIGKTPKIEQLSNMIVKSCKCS
Procedure: (§1) The binding activity of individual ligands was determined by measuring the equilibrium dissociation constants using nitrocellulose partitioning of labeled RNA as a function of protein concentration. RNA was body-labeled or guanylated and then 5′-end labeled with γ-³²P ATP and T4 polynucleotide kinase. Binding reactions were set at various protein concentrations (typically varied in either 3-fold or 10-fold increments) while maintaining the labeled RNA concentration constant at less than 0.1 nM, and incubated at 37° C. for 10 minutes. Protein-RNA complexes were partitioned away from uncomplexed RNA, by filtering the binding reactions through a nitrocellulose/cellulose acetated mixed matrix (0.45 μm pore size filter disks, type HA; Millipore, Co., Bedford, Mass.). For filtration, the filters were placed onto a vacuum manifold (12-well, Millipore, or 96-well BRL) and wetted by aspirating 1-5 ml of binding buffer. The binding reactions were aspirated through the filters, washed with 1-5 ml of binding buffer and counted in a scintillation counter (Beckmann).

[2] = biological target: T1, TGFβ2 (transforming growth factor beta …); assay: cell_activity; mink lung epithelial cell proliferation; settings: chain copies: 2 (homodimer, stated)
Procedure: (§2) The bioactivity of TGFβ2 nucleic acid ligands was measured with mink lung epithelial cells. Proliferation of these cells is inhibited by TGFβ2. Human TGFβ2 was titrated on the cells and ³H-thymidine incorporation was measured. […] This inhibitory amount of TGFβ2 along with varying amounts of nucleic acid ligand (typically 0.3 or 1 nM to 1 or 3 μM, in 3 fold increments) was used. Typically, cells were plated at 10E5/ml in 96-well plates in 100 μl MEM, 10 mM HEPES pH 7.4, 0.2% FBS. […] After incubation, the cells were lysed with 1% Triton X-100 and harvested onto GF/B filter plates in a Packard 96 well plate harvester, and ³H-thymidine incorporation in cellular DNA was quantitated by scintillation counting in MicroScint (Packard, Mariden, Conn.) in a Packard Top-Count. Data were plotted as % of maximum ³H-thymidine incorporation vs RNA concentration, and were fitted by the software Kaleidagraph (Synergy Software, Reading, Pa.) to the equation m3*(m0+m1+(m2)−((m0+m1+(m2))*(m0+m1+(m2))−4*(m0)*( m2)))\hat{ }0.5)/(2*(m2)); where m0 is the concentration of competitor RNA; m1 is the IC50, m2 is the concentration of TGFβ2, and m3 is the plateau value of the fraction of maximum ³H-thymidine incorporation. […]

[3] = biological target: T1, TGFβ2 (transforming growth factor beta …); assay: filter; settings: chain copies: 2 (inferred, homodimer)
[4] = biological target: T1, TGFβ2 (transforming growth factor beta …); assay: filter; settings: chain copies: 2 (inferred, homodimer); remark: listed apart in the source
[5] = biological target: T1, TGFβ2 (transforming growth factor beta …); assay: filter; settings: chain copies: 2 (inferred, homodimer); remark: listed apart in the source
[6] = biological target: T1, TGFβ2 (transforming growth factor beta …); assay: filter; settings: chain copies: 2 (inferred, homodimer); remark: listed apart in the source
[7] = biological target: T1, TGFβ2 (transforming growth factor beta …); assay: cell_activity; mink lung epithelial cell proliferation; settings: chain copies: 2 (inferred, homodimer)
Procedure: The bioactivity of TGFβ2 nucleic acid ligands was measured with mink lung epithelial cells. Proliferation of these cells is inhibited by TGFβ2. Human TGFβ2 was titrated on the cells and ³H-thymidine incorporation was measured. […] This inhibitory amount of TGFβ2 along with varying amounts of nucleic acid ligand (typically 0.3 or 1 nM to 1 or 3 μM, in 3 fold increments) was used. Typically, cells were plated at 10E5/ml in 96-well plates in 100 μl MEM, 10 mM HEPES pH 7.4, 0.2% FBS. […] After incubation, the cells were lysed with 1% Triton X-100 and harvested onto GF/B filter plates in a Packard 96 well plate harvester, and ³H-thymidine incorporation in cellular DNA was quantitated by scintillation counting in MicroScint (Packard, Mariden, Conn.) in a Packard Top-Count. Data were plotted as % of maximum ³H-thymidine incorporation vs RNA concentration, and were fitted by the software Kaleidagraph (Synergy Software, Reading, Pa.) to the equation m3*(m0+m1+(m2)−((m0+m1+(m2))*(m0+m1+(m2))−4*(m0)*( m2)))\hat{ }0.5)/(2*(m2)); where m0 is the concentration of competitor RNA; m1 is the IC50, m2 is the concentration of TGFβ2, and m3 is the plateau value of the fraction of maximum ³H-thymidine incorporation.

[8] = biological target: T1, TGFβ2 (transforming growth factor beta …); assay: filter; Table 18 footnote states ~1 nM; Ki ~10 nM; settings: chain copies: 2 (inferred, homodimer)
[9] = biological target: T1, TGFβ2 (transforming growth factor beta …); assay: filter; settings: chain copies: 2 (inferred, homodimer); remark: listed apart in the source
[10] = biological target: T1, TGFβ2 (transforming growth factor beta …); assay: filter; 37C; Ki 10 nM in cell assay; settings: chain copies: 2 (inferred, homodimer)
Procedure: as §1

[11] = biological target: T2, TGFβ1 (transforming growth factor beta 1) (Homo sapiens, UniProt P01137 SEQ:1-112); assay: bioactivity +++; settings: chain copies: 2 (inferred, homodimer)
[12] = biological target: T2, TGFβ1 (transforming growth factor beta …)
[13] = biological target: T1, TGFβ2 (transforming growth factor beta …); assay: filter; 37C; Ki 230 nM in cell assay; settings: chain copies: 2 (inferred, homodimer)
Procedure: as §1

[14] = biological target: T1, TGFβ2 (transforming growth factor beta …); assay: cell_activity; mink lung epithelial cell proliferation; text p154 about 200 nM; settings: chain copies: 2 (homodimer, stated)
Procedure: as §2

T2 sequence (P01137 279-390): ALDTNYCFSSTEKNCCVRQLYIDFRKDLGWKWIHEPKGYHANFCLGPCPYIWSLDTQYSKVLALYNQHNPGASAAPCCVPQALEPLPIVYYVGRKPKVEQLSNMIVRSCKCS

B1: 21a-4 (ssRNA)
RNA: GGGAGGACGAUGCGGCGUUGUUUAGUCGUAUGUAUAUACUAAGUCCGCUUGUCCCCAGACGACUCGCCCGA
modifications: 2'-F C and U
Kd [1]: ~3 nM

B2: 21a-4 (ssRNA)
RNA: B1 RNA
modifications: 2'-F C and U; 2'-OH A and G
Ki [2]: 30 nM

B3: 14i-1Δ5',3' (ssRNA)
RNA: GGAAGUAACGUUGUAGUAAAAUUCGUUCUCUCGGCAUUUGGCCA
modifications: 2'-F C and U
binding signal [3]: > 100 x Kd of 14i-1

B4: NX22385 (ssRNA)
RNA: UGUGAAUAUUAGAGAGUCUGUAUAGCUCUACCCC
modifications: 2'-F C and U; 3'-3' dT
binding signal [4]: 0.4 x Kd of NX22284

B5: NX22425 (ssRNA)
RNA: B4 RNA
modifications: 2'-F C and U; 2'-OMe at lowercase a,g of UgUgaaUAUUagagagUCUGUAUAgCUCUaCCCC; 3'-3' dT
binding signal [4]: 1.5 x Kd of NX22284

B6: NX22424 (ssRNA)
RNA: B4 RNA
modifications: 2'-F C and U; 2'-OMe at lowercase a,g of UgUgAAUAUUaGagagUCUGUAUAgCUCUaCCCC; 3'-3' dT
binding signal [4]: 0.6 x Kd of NX22284

B7: 21a-4(ML-110) (ssRNA)
RNA: GGGGAGCGGCGUUGUUUAGUCGUAUGUAUAUACUAAGUCCGC
modifications: 2'-F C and U
binding signal [5]: 1 x Kd of 21a-4

B8: 21a-4Δ5',3' (ssRNA)
RNA: GGCGUUGUUUAGUCGUAUGUAUAUACUAAGUCCGCUUGUCCCCA
modifications: 2'-F C and U
binding signal [5]: > 100 x Kd of 21a-4

B9: NX22283 (ssRNA)
RNA: GGAGGUUAUUACAGAGUCUGUAUAGCUGUACUCCCC
modifications: 2'-F C and U; 3'-3' dT cap
binding signal [6]: 0.6 x Kd of NX22284 | Ki [7]: 10 nM

B10: 21a-4(ML-92) (ssRNA)
RNA: GGGGAGCGGCGUUGUUGAAAAGUCCGCUU
modifications: 2'-F C and U
binding signal [5]: > 100 x Kd of 21a-4

B11: 21a-4(ML-91) (ssRNA)
RNA: GGGGAGCGGCGUUGUUUAGUCGUAUGUAUAUACUAAGUCCGCUU
modifications: 2'-F C and U
binding signal [5]: 1 x Kd of 21a-4

B12: 14i-1(ML-89) (ssRNA)
RNA: GGGAGGAGUAACGUUGUAGU
modifications: 2'-F C and U
binding signal [3]: > 100 x Kd of 14i-1

B13: 21a-4(ML-109) (ssRNA)
RNA: GGGGAGCGGCGUUGUUUAUGUAUAAGUCCGCUU
modifications: 2'-F C and U
binding signal [5]: > 100 x Kd of 21a-4

B14: NX22284 (ssRNA)
RNA: GGAGGUUAUUACAGAGUCUGUAUAGCUGUACUCC
modifications: 2'-F C and U; 3'-3' dT cap
Kd [8]: ~2 nM

B15: NX22358 (ssRNA)
RNA: B14 RNA
modifications: 2'-F C and U; 2'-OMe at lowercase a,g of GGAGGUUAUUACagagUCUGUAUAGCUGUACUCC; 3'-3' dT
binding signal [9]: 1 x Kd of NX22284

B16: NX22417 (ssRNA)
RNA: B14 RNA
modifications: 2'-F C and U; 2'-OMe at all purines except G20, A22, A24; 3'-3' dT
binding signal [9]: 1 x Kd of NX22284

B17: NX22420 (ssRNA)
RNA: B14 RNA
modifications: 2'-F C and U; 2'-OMe at all purines except A8, G20, A22, A24; 3'-3' dT
binding signal [9]: 1 x Kd of NX22284

B18: NX22421 (ssRNA)
RNA: B14 RNA
modifications: 2'-F C and U; 2'-OMe at all purines except G5, A8, A11, G20, A22, A24; 3'-3' dT
binding signal [9]: 2 x Kd of NX22284

B19: NX22377 (ssRNA)
RNA: B14 RNA
modifications: 2'-F C and U; 2'-OMe at lowercase a,g of ggaggUUaUUaCAGAGUCUGUAUAgCUgUaCucc; 3'-3' dT
binding signal [9]: 1 x Kd of NX22284

B20: NX22360 (ssRNA)
RNA: B14 RNA
modifications: 2'-F C and U; 2'-OMe at lowercase a,g of GGAGGUUAUUACAGAGUCUGUAUAgCUgUaCUCC; 3'-3' dT
binding signal [9]: 1 x Kd of NX22284

B21: 14i-1(ML-86) (ssRNA)
RNA: GGGAGGAUGCGGAAGUAACGUUGUAGUUCCUUC
modifications: 2'-F C and U
binding signal [3]: > 100 x Kd of 14i-1

B22: 21a-4(ML-111) (ssRNA)
RNA: GGGGAGCGGCGUUGUUUAGUCGUAUGUAUAUACUAAGU
modifications: 2'-F C and U
binding signal [5]: 30 x Kd of 21a-4

B23: NX22426 (ssRNA)
RNA: GGAGAUAUUACAGAGUCUGUAUAGCUGUACUCC
modifications: 2'-F C and U; 2'-OMe at lowercase a,g of ggaga-UAUUaCagagUCUgUAUAgCUgUaCucc with G of CUGUAUA 2'-OH; 3'-3' dT
binding signal [9]: 1 x Kd of NX22284

B24: 14i-1t5-35 (ssRNA)
RNA: GGGAGGAUGCGGAAGUAACGUUGUAGUAAAAU
modifications: 2'-F C and U
binding signal [3]: > 100 x Kd of 14i-1

B25: 14i-1t5-41 (ssRNA)
RNA: GGGAGGAUGCGGAAGUAACGUUGUAGUAAAAUUCCUUC
modifications: 2'-F C and U
binding signal [3]: 1 x Kd of 14i-1

B26: 14i-1t5-38 (ssRNA)
RNA: GGGAGGAUGCGGAAGUAACGUUGUAGUAAAAUUCC
modifications: 2'-F C and U
binding signal [3]: > 100 x Kd of 14i-1

B27: 21a-21 (ssRNA)
RNA: GGGAGGACGAUGCGGUUCAGGAGGUUAUUACAGAGUCUGUAUAGCUGUACUCCCCAGACGACUCGCCCGA
modifications: 2'-F C and U
Kd [10]: ~1 nM

B28: 21a-21 (ssRNA)
RNA: B27 RNA
modifications: 2'-F C and U; 2'-OH A and G
Ki [2]: 10 nM

B29: CD70 (ChD70) (ssRNA)
RNA: GGGUGCCUUUUGCCUAGGUUGUGAUUUGUAACCUUCUGCCCA
modifications: 2'-F pyrimidines (library chemistry)
binding result [11]: binds

B30: ChD70-m13 (ssRNA)
RNA: B29 RNA
modifications: 2'-OMe purines at 21, 23-24, 28 and 30
binding result [12]: binds

B31: ChD70-m17 (ssRNA)
RNA: B29 RNA
modifications: 2'-OMe purines at 1-3, 16-18, 21, 23-24, 28, 30-31 and 42; 3'-3' U
binding result [11]: binds

B32: 21a-4(ML-108) (ssRNA)
RNA: GGGGAGCGGCGUUGUUUCGUAUGUAUAUAAGUCCGCUU
modifications: 2'-F C and U
binding signal [5]: > 100 x Kd of 21a-4

B33: 14i-1(ML-87) (ssRNA)
RNA: GGGAGGAUGCGGAAGUAACGUUGUAGU
modifications: 2'-F C and U
binding signal [3]: > 100 x Kd of 14i-1

B34: 14i-1 (ssRNA)
RNA: GGGAGGACGAUGCGGAAGUAACGUUGUAGUAAAAUUCGUUCUCUCGGCAUUUGGCCAGACGACUCGCCCGA
modifications: 2'-F C and U
Kd [13]: ~10 nM

B35: 14i-1 (ssRNA)
RNA: B34 RNA
modifications: 2'-F C and U; 2'-OH A and G
Ki [14]: 230 nM

— patent US20040258656, “High affinity TGFbeta nucleic acid ligands and inhibitors” (published 2004)
